Bounds are passed on as bounds.

Experiment [1] addresses T1, SARS-CoV-2 Receptor Binding Domain (RBD) protein (SARS-CoV-2, UniProt P0DTC2 319-541).
T1 construct: also called Sars-Cov-2 (COV2)
As to the kind of experiment: SPR (Carterra LSA).

Experiment [2] has as its target T1, SARS-CoV-2 Receptor Binding Domain …. Nature of the experiment: SPR (Carterra LSA); scFv captured by anti-V5, RBD as analyte.
Experiment [3] deals with SARS-CoV-2 spike protein (on pseudovirus) (SARS-CoV-2, UniProt P0DTC2 14-1273). As to the kind of experiment: cell-based or functional assay.

B1: COVID19_P01_H05 (scFv, V domains shown)
VH: QVQLVQSGAEVKKPGSSVKVSCKASGGTFSNFALTWVRQAPGQGLEWMGLINPSGGSTSYAQRFQGRVTITADESTSTAYMELSSLRSEDTAVYYCARDSVMGGMDVWGQGTLVTVSS
VL: SSYVLTQPPSVSVAPGKTARITCGGNNIGSKSVHWYQQKPGQAPVLVIYYDSDRPSGIPERFSGSNSGNTATLTISRVEAGDEADYYCQVWASSSDYVFGGGTKLTVLA
Consider B1, for which, in experiment [1], the Kd – broadly, a measure of binding affinity in units of concentration – is less than 50 nM. Further, in experiment [2], the Kd amounted to 1.11 nM, the koff (commonly the rate constant with which the complex falls apart) is 0.000468 s⁻¹ and the kon (usually the rate constant with which the complex forms) turned out to be 423000 M⁻¹ s⁻¹. Moreover, in experiment [3], the “IC50 [µg/mL] pseudotyped lenti neutralization” value turned out to be 35 µg/mL.

B2: COVID19_P13_H07 (scFv, V domains shown)
VH: QVQLVQSGAEVKKPGSSVKVSCKASGYTFINYDINWVRQAPGQGLEWMGGITPIFGTAKYAQKFQGRVTITADESTSTAYMELSSLRSEDTAVYYCARDTVMGGMDVWGQGTLVTVSS
VL: SSYVLTQPPSVSVAPGKTARITCGGNNIGSKSVHWYQQKPGQAPVLVIYYDSDRPSGIPERFSGSNSGNTATLTISRVEAGDEADYYCQVWDSSSDYVFGGGTKLTVLA
With B2, the Kd in experiment [1] is less than 50 nM. Besides, in experiment [2], the Kd was determined as 1.92 nM, the koff turned out to be 0.00031 s⁻¹ and the kon is 160000 M⁻¹ s⁻¹. Also, in experiment [3], the “IC50 [µg/mL] pseudotyped lenti neutralization” value turned out to be 15 µg/mL.
